Measurements: PMC3576117

Biological target: biotinylated, tyrosine-phosphorylated CLEC-2 alanine substitution mutant peptide (2–5 Ala)
Experiment: SPR

fold decrease in affinity against the wild type peptide [fold] | Substance
3 | GST-tagged recombinant Syk tandem SH2 domains (both SH2 domains with the linker region) (domain or fragment)
4 | GST-tagged recombinant Syk C-terminal SH2 domain (domain or fragment)
